# According to article PMC7577971:
# Biological target: CR3022/S1 complex (one monomer of the spike ectodomain with one bound CR3022 Fab) (SARS-CoV-2 | human) (UniProt P0DTC2)
# Assay: cryo-EM structure
substance,measurement,value
CR3022/S1 complex (one monomer of the spike ectodomain with one bound CR3022 Fab) (from UniProt P0DTC2 14-1208),stoichiometry N,2
